Literature values as cited in publication PMC5116920.

Molecular target: Histone H4 (UniProt P62805)

For TAF1 BD (from UniProt P21675), the Kd is listed as 100 µM.
